Some targets named below: gp120 Bal (HIV-1); gp120 CAAN (HIV); gp120 REJO (HIV).
For test [1], the target named is HIV-1 envelope glycoprotein gp120 of viral isolate 92US712 (HIV-1). Briefly: cell-based or functional assay.
Test [2] has as its target HIV-1 envelope glycoprotein gp120 of viral isolate 92US657 (HIV-1). Nature of the test: cell-based or functional assay.
The target of a further test is T1, Cyno FcγRIIA (cynomolgus macaque).
T1 construct: also called cynomolgus macaque FcγRIIA
Nature of the test: SPR (Biacore 4000), antibody amine coupled to CM4 chip, cyno FcγRIIA as analyte, steady-state fit.

Test [3] concerns the target T2, Cyno FcRn (cynomolgus macaque, UniProt Q8SPV9 24-297; Q8SPW0 21-119).
T2 construct: also called cynomolgus macaque FcRn; biotinylated cyno FcRn
Nature of the test: SPR (Biacore 4000) at pH 6.0, biotinylated cyno FcRn captured on streptavidin C1 chip, antibody as analyte, steady-state fit.
Procedure: (§1) The in vitro binding dissociation constants (KD) of selected antibodies described herein for human and cynomolgus macaque (cyno) Fc binding receptors (FcγRs, FcRn) were determined using the Biacore 4000 surface plasmon resonace (SPR) biosensor, and either C1 or CM4 sensor chips (GE Healthcare). Biotinylated human FcRn was purchased from Immunitrack. Biotinylated cynomolgus macaque FcRn and human FcγRIIIB-NA1 and FcγRIIIB-NA2 were purchased from Acro Biosystems.
(§2) To determine cynomolgus macaque FcRn binding affinities, 600 RU of streptavidin was amine coupled to a C1 sensor chip using standard NHS/EDC coupling. The immobilization buffer was PBS+0.005% Tween 20, pH 7.4. Streptavidin was prepared at 50 μg/ml in 10 mM NaAc pH 4.5. Activation, coupling, and blocking steps were run for 10 minutes, each at 10 μl/min. Biotinylated cyno FcRn was captured to about 20 RU. Antibodies were tested for binding to the FcRn surface using a two-fold concentration series up to 1 μM. Data were collected at pH 6.0 and pH 7.4 in triplicate. The response data at steady-state were fit to a simple binding isotherm.

Another test deals with T3, Cyno FcγRIII (cynomolgus macaque, UniProt Q8SPW2 17-208).
T3 construct: also called cynomolgus macaque FcγRIII
Briefly: SPR (Biacore 4000), antibody amine coupled to CM4 chip, cyno FcγRIII as analyte, steady-state fit. (In SPR one partner is held on a chip, and binding of the other changes the refractive index at the surface.)

For the next test, the target named is T4, Human FcγRIIIB-NA1 (human, UniProt O75015 17-200).
T4 construct: also called CD16b NA1
Briefly: SPR (Biacore 4000), antibody amine coupled to CM4 chip, FcγRIIIB as analyte, steady-state fit.

The next test deals with T5, Human FcγRIIIB-NA2 (human, UniProt O75015 17-200).
T5 construct: also called CD16b NA2
Described as above.

Test [4] has as its target T6, Human FcRn (human, UniProt P55899 24-297; P61769 21-119).
T6 construct: also called neonatal Fc-receptor; biotinylated human FcRn
Briefly: SPR (Biacore 4000) at pH 6.0, biotinylated FcRn captured on streptavidin C1 chip, antibody as analyte, steady-state fit.
Procedure: (§3) The in vitro binding dissociation constants (KD) of selected antibodies described herein for human and cynomolgus macaque (cyno) Fc binding receptors (FcγRs, FcRn) were determined using the Biacore 4000 surface plasmon resonace (SPR) biosensor, and either C1 or CM4 sensor chips (GE Healthcare).
(§4) For human FcRn binding assays, 600 RU of streptavidin was amine coupled to a C1 sensor chip using standard NHS/EDC coupling. The immobilization buffer was PBS+0.005% Tween 20, pH 7.4. Streptavidin was prepared at 50 μg/ml in 10 mM NaAc pH 4.5. Activation, coupling, and blocking steps were run for 10 minutes, each at 10 μl/min. […] Data were collected at pH 6.0 and pH 7.4 in triplicate. The response data at steady-state were fit to a simple binding isotherm.

The next test deals with T7, Human FcγRIIB (human, UniProt P31994 46-217).
T7 construct: also called FcγRIIB/C; FcRIIB/C
T7 sequence (looked up): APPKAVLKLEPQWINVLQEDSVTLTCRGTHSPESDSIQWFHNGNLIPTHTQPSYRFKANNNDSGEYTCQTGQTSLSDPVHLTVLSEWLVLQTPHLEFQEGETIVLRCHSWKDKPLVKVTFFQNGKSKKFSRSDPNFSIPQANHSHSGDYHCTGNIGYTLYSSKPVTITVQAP
Nature of the test: SPR (Biacore 4000), FcγRIIB/C amine coupled to CM4 chip, antibody as analyte, steady-state fit.

The target of another test is T8, Cyno FcγRIIB (cynomolgus macaque).
T8 construct: also called cynomolgus macaque FcγRIIB
Nature of the test: SPR (Biacore 4000), antibody amine coupled to CM4 chip, cyno FcγRIIB as analyte, steady-state fit.

The target in test [5] is T6, Human FcRn. Briefly: SPR (Biacore 4000) at pH 7.4, biotinylated FcRn captured on streptavidin C1 chip, antibody as analyte, steady-state fit.
Procedure: as §3, §4
Test [6] addresses T2, Cyno FcRn. Briefly: SPR (Biacore 4000) at pH 7.4, biotinylated cyno FcRn captured on streptavidin C1 chip, antibody as analyte, steady-state fit.
Procedure: as §1, §2
For the next test, the target named is T9, Human FcγRI (human, UniProt P12314 16-288).
T9 construct: also called CD64
Nature of the test: SPR (Biacore 4000), antibody amine coupled to CM4 chip, FcγRI as analyte (3 and 30 nM), kinetic fit.

In the next test the target is T10, Cyno FcγRI (cynomolgus macaque, UniProt A0A2K5U901 33-309).
T10 construct: also called cynomolgus macaque FcγRI
Nature of the test: SPR (Biacore 4000), antibody amine coupled to CM4 chip, cyno FcγRI as analyte (3 and 30 nM), kinetic fit.

The target of the next test is Human FcγRIIIA-176F (human, UniProt P08637 17-208). Nature of the test: SPR (Biacore 4000), receptor amine coupled to CM4 chip, antibody as analyte, steady-state fit.
Another test concerns the target T11, Human FcγRIIA-167H (human, UniProt P12318 36-218).
T11 sequence (looked up): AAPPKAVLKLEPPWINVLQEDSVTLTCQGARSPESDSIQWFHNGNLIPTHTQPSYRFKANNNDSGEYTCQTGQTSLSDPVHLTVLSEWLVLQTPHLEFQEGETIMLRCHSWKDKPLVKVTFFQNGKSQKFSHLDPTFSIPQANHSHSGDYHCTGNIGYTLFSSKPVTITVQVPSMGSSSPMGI
Described as above.

The target of a further test is T12, Human FcγRIIA-167R (human, UniProt P12318 36-218).
T12 sequence (looked up): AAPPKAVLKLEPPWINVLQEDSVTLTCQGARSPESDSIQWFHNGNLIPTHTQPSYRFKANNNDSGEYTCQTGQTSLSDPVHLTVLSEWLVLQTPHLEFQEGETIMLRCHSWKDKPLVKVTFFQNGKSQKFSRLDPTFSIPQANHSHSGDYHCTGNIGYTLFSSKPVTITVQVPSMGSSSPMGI
Described as above.

A further test deals with T13, Human FcγRIIIA-176V (human, UniProt P08637 17-208).
T13 construct: also called CD16a 176V
The description is as above.

As a reminder, the Kd is the free concentration of one partner at which half of the binding sites on the other are occupied at equilibrium, for simple one-to-one binding. Broadly, the EC50 is the concentration giving half of the maximal effect.

Procedure for Cyno FcγRIIA: as §3
(§5) To determine cynomolgus macaque FcγRIIA, FcγRIIB, FcγRIII and FcγRI binding affinities each test antibody was amine coupled to a CM4 sensor chip at two densities (about 100 RU and about 800 RU). Cyno FcγRIIA and FcγRIIB were tested in a two-fold concentration series up to 1 μM. FcγRIII was tested in a two-fold concentration up to 500 nM. Cyno FcγRI was tested for binding using a two-step titration (3 nM and 30 nM). The response data for FcγRIIA, FcγRIIB, FcγRIII at steady-state were fit to a simple binding isotherm. Responses for FcγRI were fit to a simple kinetic model.
Procedure for Cyno FcγRIIB: as §3, §5
Procedure for Cyno FcγRIII: as §3, §5

B1: Antibody A-2 (antibody, human IgG1, kappa)
heavy: QVQLLQSGAAVTKPGASVRVSCEASGYNIRDYFIHWWRQAPGQGLQWVGWINPKTGQPNNPRQFQGRVSLTRHASWDFDTFSFYMDLKALRSDDTAVYFCARQRSDYWDFDVWGSGTQVTVSSASTKGPSVFPLAPSSKSTSGGTAALGCLVKDYFPEPVTVSWNSGALTSGVHTFPAVLQSSGLYSLSSVVTVPSSSLGTQTYICNVNHKPSNTKVDKKVEPKSCDKTHTCPPCPAPELLAGPDVFLFPPKPKDTLMISRTPEVTCVVVDVSHEDPEVKFNWYVDGVEVHNAKTKPREEQYNSTYRVVSVLTVLHQDWLNGKEYKCKVSNKALPLPEEKTISKAKGQPREPQVYTLPPSREEMTKNQVSLTCLVKGFYPSDIAVEWESNGQPENNYKTTPPVLDSDGSFFLYSKLTVDKSRWQQGNVFSCSVMHEALHNHYTQKSLSLSPGK
light: DIQMTQSPSSLSASVGDTVTITCQANGYLNWYQQRRGKAPKLLIYDGSKLERGVPSRFSGRRWGQEYNLTINNLQPEDIATYFCQVYEFVVPGTRLDLKRTVAAPSVFIFPPSDEQLKSGTASVVCLLNNFYPREAKVQWKVDNALQSGNSQESVTEQDSKDSTYSLSSTLTLSKADYEKHKVYACEVTHQGLSSPVTKSFNRGEC
With B1, in test [1], the “ADCC EC50, NK Donor 1” value turned out to be 0.18 µg/mL; the “ADCC EC50, NK Donor 2” value was found to be 0.08 µg/mL; the “ADCC EC50, NK Donor 3” value came to 0.2 µg/mL; the “ADCC Emax, NK Donor 1” value was 76%. Further, in test [1], the “ADCC Emax, NK Donor 2” value is 60% and the “ADCC Emax, NK Donor 3” value was determined as 60%. In [2], the “ADCC EC50, NK Donor 1” value came to 0.54 µg/mL; the “ADCC EC50, NK Donor 2” value came out at 0.81 µg/mL; the “ADCC EC50, NK Donor 3” value stood at 1.13 µg/mL; the “ADCC Emax, NK Donor 1” value came out at 59%. Besides, in test [2], the “ADCC Emax, NK Donor 2” value amounted to 51% and the “ADCC Emax, NK Donor 3” value came out at 56%.

B2: Antibody A-1 (antibody, human IgG1, kappa)
heavy: QVQLLQSGAAVTKPGASVRVSCEASGYNIRDYFIHWWRQAPGQGLQWVGWINPKTGQPNNPRQFQGRVSLTRHASWDFDTFSFYMDLKALRSDDTAVYFCARQRSDYWDFDVWGSGTQVTVSSASTKGPSVFPLAPSSKSTSGGTAALGCLVKDYFPEPVTVSWNSGALTSGVHTFPAVLQSSGLYSLSSVVTVPSSSLGTQTYICNVNHKPSNTKVDKKVEPKSCDKTHTCPPCPAPELLAGPDVFLFPPKPKDTLMISRTPEVTCVVVDVSHEDPEVKFNWYVDGVEVHNAKTKPREEQYNSTYRVVSVLTVLHQDWLNGKEYKCKVSNKALPLPEEKTISKAKGQPREPQVYTLPPSREEMTKNQVSLTCLVKGFYPSDIAVEWESNGQPENNYKTTPPVLDSDGSFFLYSKLTVDKSRWQQGNVFSCSVLHEALHSHYTQKSLSLSPGK
light: DIQMTQSPSSLSASVGDTVTITCQANGYLNWYQQRRGKAPKLLIYDGSKLERGVPSRFSGRRWGQEYNLTINNLQPEDIATYFCQVYEFVVPGTRLDLKRTVAAPSVFIFPPSDEQLKSGTASVVCLLNNFYPREAKVQWKVDNALQSGNSQESVTEQDSKDSTYSLSSTLTLSKADYEKHKVYACEVTHQGLSSPVTKSFNRGEC
As for B2, the Kd was 1100 nM with Cyno FcγRIIA; 16 nM in the test with Cyno FcRn [3]; 7.1 nM with Cyno FcγRIII; 59 nM in the test with Human FcγRIIIB-NA1; 56 nM with Human FcγRIIIB-NA2; 38 nM with Human FcRn [4]. Besides, the equilibrium dissociation constant (Kd) is 1600 nM with Human FcγRIIB; 240 nM with Cyno FcγRIIB; 1700 nM with Human FcRn [5]; 4300 nM with Cyno FcRn [6]; 0.002 nM in the test with Human FcγRI; 0.005 nM with Cyno FcγRI. The Kd with Human FcγRIIIA-176F was found to be 52 nM; with Human FcγRIIA-167H, 131 nM; with Human FcγRIIA-167R, 130 nM; with Human FcγRIIIA-176V, 59 nM. For the same molecule, the EC50 was determined as 0.06 nM in the test with gp120 Bal, 2.17 nM in the test with gp120 CAAN and 2.37 nM with gp120 REJO.

B3: Antibody 1.52.64-1 (antibody, human IgG1, kappa)
heavy: QVQLLQSGAAVTKPGASVRVSCEASGYNIRDYFIHWWRQAPGQGLQWVGWINPKTGQPNNPRQFQGRVSLTRHASFDFDTFSFYMDLKALRSDDTAVYFCARQRSDYWDFDVWGSGTQVTVSSASTKGPSVFPLAPSSKSTSGGTAALGCLVKDYFPEPVTVSWNSGALTSGVHTFPAVLQSSGLYSLSSVVTVPSSSLGTQTYICNVNHKPSNTKVDKKVEPKSCDKTHTCPPCPAPELLAGPDVFLFPPKPKDTLMISRTPEVTCVVVDVSHEDPEVKFNWYVDGVEVHNAKTKPREEQYNSTYRVVSVLTVLHQDWLNGKEYKCKVSNKALPLPEEKTISKAKGQPREPQVYTLPPSREEMTKNQVSLTCLVKGFYPSDIAVEWESNGQPENNYKTTPPVLDSDGSFFLYSKLTVDKSRWQQGNVFSCSVLHEALHSHYTQKSLSLSPGK
light: DIQMTQSPSSLSASVGDTATITCQANGYLNWYQQRRGKAPKLLIYDGSKLERGVPSRFSGRRWGQEYNLTINNLQPEDIATYFCQVYEFVVPGTRLDLKRTVAAPSVFIFPPSDEQLKSGTASVVCLLNNFYPREAKVQWKVDNALQSGNSQESVTEQDSKDSTYSLSSTLTLSKADYEKHKVYACEVTHQGLSSPVTKSFNRGEC
Regarding B3, the equilibrium dissociation constant (Kd) with Cyno FcγRIIA stood at 1180 nM; in the test with Cyno FcRn [3], 22 nM; with Cyno FcγRIII, 8 nM; with Human FcγRIIIB-NA1, 64 nM; in the test with Human FcγRIIIB-NA2, 55 nM; in the test with Human FcRn [4], 49 nM. The Kd with Human FcγRIIB stood at 1900 nM; with Cyno FcγRIIB, 280 nM; in the test with Human FcRn [5], 1120 nM; with Cyno FcRn [6] it was 5300 nM; with Human FcγRI, 0.0012 nM; with Cyno FcγRI, 0.005 nM. The equilibrium dissociation constant (Kd) came to 63 nM with Human FcγRIIIA-176F, 221 nM with Human FcγRIIA-167H, 199 nM in the test with Human FcγRIIA-167R and 67 nM with Human FcγRIIIA-176V. In addition, the concentration for a half-maximal effect (EC50) with gp120 Bal amounted to 0.07 nM; in the test with gp120 CAAN it was 3.79 nM; with gp120 REJO, 4.02 nM.

The values are drawn from patent US20240034774A1 (Gilead, published 2024).
